12 molecules from patent US20230383012A1 (Xencor, published 2023) can be followed below.

Substitutions are numbered along the chain they refer to.

For orientation: Kd means the equilibrium constant for the complex coming apart. Read a high Kd as a looser complex.

To fix the notation:
B1: XENP39368 (bispecific antibody)
heavy: EVQLLESGGGLVQPGGSLRLSCAASGFTFSSYDMSWVRQAPGKRLEWVSTISSGGSFTHYPDSVKGRFTISRDNSKNTLYLQMNSLRAEDTAVYYCARRSLDWYFDVWGAGTTVTVSSASTKGPSVFPLAPSSKSTSGGTAALGCLVKDYFPEPVTVSWNSGALTSGVHTFPAVLQSSGLYSLSSVVTVPSSSLGTQTYICNVNHKPSDTKVDKKVEPKSCDKTHTCPPCPAPPVAGPSVFLFPPKPKDTLMISRTPEVTCVVVDVKHEDPEVKFNWYVDGVEVHNAKTKPREEEYNSTYRVVSVLTVLHQDWLNGKEYKCKVSNKALPAPIEKTISKAKGQPREPQVYTLPPSREEMTKNQVSLTCDVSGFYPSDIAVEWESDGQPENNYKTTPPVLDSDGSFFLYSKLTVDKSRWEQGDVFSCSVMHEALHNHYTQKSLSLSPGK
scFv-Fc: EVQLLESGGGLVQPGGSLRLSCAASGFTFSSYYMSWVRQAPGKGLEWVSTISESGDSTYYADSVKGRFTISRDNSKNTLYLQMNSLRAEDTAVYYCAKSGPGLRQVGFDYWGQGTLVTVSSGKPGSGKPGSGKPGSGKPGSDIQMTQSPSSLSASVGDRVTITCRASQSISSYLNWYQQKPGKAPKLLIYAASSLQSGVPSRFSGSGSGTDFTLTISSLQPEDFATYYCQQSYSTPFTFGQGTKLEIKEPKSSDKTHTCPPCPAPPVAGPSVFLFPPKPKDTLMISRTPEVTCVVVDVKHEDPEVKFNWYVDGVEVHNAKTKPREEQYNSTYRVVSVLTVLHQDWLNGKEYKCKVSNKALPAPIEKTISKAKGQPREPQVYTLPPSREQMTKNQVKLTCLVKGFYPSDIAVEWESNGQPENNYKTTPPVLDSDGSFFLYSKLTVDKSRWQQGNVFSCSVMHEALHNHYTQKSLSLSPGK
light: EIVLTQSPGTLSLSPGERATLSCRVSSSIQSTNLHWYQQKPGQSPRPLIYGTSVLATGVPVRFSGSGSGTDYTLTISRLEPEDFAVYYCQQWSSYPLYTFGGGTKVEIKRTVAAPSVFIFPPSDEQLKSGTASVVCLLNNFYPREAKVQWKVDNALQSGNSQESVTEQDSKDSTYSLSSTLTLSKADYEKHKVYACEVTHQGLSSPVTKSFNRGEC
B2: XENP39365 (bispecific antibody)
heavy: B1 heavy
scFv-Fc: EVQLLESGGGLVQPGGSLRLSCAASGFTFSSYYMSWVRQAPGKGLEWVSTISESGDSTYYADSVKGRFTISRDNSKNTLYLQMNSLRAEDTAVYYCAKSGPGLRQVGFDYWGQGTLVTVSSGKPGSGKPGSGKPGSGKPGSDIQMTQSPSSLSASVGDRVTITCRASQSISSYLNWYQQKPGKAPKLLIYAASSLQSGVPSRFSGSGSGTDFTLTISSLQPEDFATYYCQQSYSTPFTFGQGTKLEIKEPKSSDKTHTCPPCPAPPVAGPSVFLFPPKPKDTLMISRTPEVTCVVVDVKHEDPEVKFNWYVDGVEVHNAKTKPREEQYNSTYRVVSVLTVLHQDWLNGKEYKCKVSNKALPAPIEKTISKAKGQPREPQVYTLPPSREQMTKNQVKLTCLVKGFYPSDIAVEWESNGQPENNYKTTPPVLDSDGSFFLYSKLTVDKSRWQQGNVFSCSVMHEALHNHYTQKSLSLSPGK
light: B1 light with S27L, T32S, S53N, V54L, T57S
B3: PDL1 binding domain 2G4_H1.12_L1.68 (Fab, V domains shown)
VH: EVQLLESGGGLVQPGGSLRLSCAASGFTFSVYDMSWVRQAPGKRLEWVSTISSGGSFTHYPDSVKGRFTISRDNSKNTLYLQMNSLRAEDTAVYYCVRRSLDWYFDVWGAGTTVTVSS
VL: EIVLTQSPGTLSLSPGERATLSCRVSSSIQSTNLHWYQQKPGQSPRPLIYGTSNLASGVPVRFSGSGSGTDYTLTISRLEPEDFAVYYCQQWSSYPLYTFGGGTKVEIK
B4: PDL1 binding domain 2G4_H1.12_L1.14 (Fab, V domains shown)
VH: B3 VH
VL: B3 VL with T32S
notes: also called as in XENP40409 and XENP40706
B5: PDL1 binding domain 2G4_H1.12_L1.66 (Fab, V domains shown)
VH: B3 VH
VL: B3 VL with S57T
B6: XENP38514 (bispecific antibody)
heavy: B1 heavy with S31V, A97V
scFv-Fc: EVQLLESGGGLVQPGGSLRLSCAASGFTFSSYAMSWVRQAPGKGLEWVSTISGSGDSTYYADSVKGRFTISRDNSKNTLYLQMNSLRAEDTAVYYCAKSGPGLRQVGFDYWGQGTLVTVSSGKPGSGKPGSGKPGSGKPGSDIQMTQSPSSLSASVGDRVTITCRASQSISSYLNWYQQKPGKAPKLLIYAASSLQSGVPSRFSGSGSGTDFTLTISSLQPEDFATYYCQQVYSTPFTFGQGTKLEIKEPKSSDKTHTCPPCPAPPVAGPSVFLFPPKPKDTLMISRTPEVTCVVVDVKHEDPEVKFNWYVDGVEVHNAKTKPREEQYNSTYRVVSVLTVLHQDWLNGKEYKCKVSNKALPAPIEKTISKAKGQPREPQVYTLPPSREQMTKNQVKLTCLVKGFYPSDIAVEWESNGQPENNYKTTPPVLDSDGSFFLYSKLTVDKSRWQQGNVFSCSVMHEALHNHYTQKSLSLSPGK
light: B1 light
notes: also called αPDL1×αCD28 bsAb XENP38514
B7: XENP37561 (bispecific antibody)
chain 1: B1 heavy with A97V, L101G
chain 2: not shown
chain 3: B1 light with Q30S, T32S, V54N, T57S
B8: XENP37560 (bispecific antibody)
chain 1: B1 heavy with A97V, L101G
chain 2: not shown
chain 3: B1 light with Q30S, T32S, V54N, T57S
B9: XENP36233 (bispecific antibody)
chain 1: B1 heavy with A97V, L101G
chain 2: not shown
chain 3: B1 light with Q30S, T32S, V54N, T57S
B10: XENP37559 (bispecific antibody)
chain 1: B1 heavy with A97V, L101G
chain 2: not shown
chain 3: B1 light with Q30S, T32S, V54N, T57S
B11: XENP37261 (bispecific antibody)
chain 1: B1 heavy with A97V, L101G
chain 2: not shown
chain 3: B1 light with Q30S, T32S, V54N, T57S
B12: XENP37412 (bispecific antibody)
chain 1: B1 heavy with A97V, L101G
chain 2: not shown
chain 3: B1 light with Q30S, T32S, V54N, T57S

One assay addresses T1, human PDL1 (human, UniProt Q9NZQ7 19-238).
T1 construct: his-tagged in the Carterra assay; also called PDL1 antigen
As to the kind of experiment: descriptor in the SEB-stimulated PBMC example.
For the molecule B1, the binding result is “binds”. Still for that read-out and setting: the entry for B2 is “binds”.

For a further assay, the target named is T1, human PDL1. As to the kind of experiment: PDL1 binding affinity; Biacore per paragraph 695, in PDL1×CD28 bsAb. A general note: In SPR one partner is held on a chip, and binding of the other changes the refractive index at the surface.
Turning to B3, binding was characterised by a dissociation constant (Kd) of 0.8 nM. Same read-out and setting: in the case of B4 it was 0.42 nM; in that of B5, 0.86 nM. The same measure, in the same setting: the figure for B6 is 0.17 nM.

The target of a further assay is T2, human CD28 antigen (human, UniProt P10747 19-152).
T2 construct: also called his-tagged CD28 antigen
As to the kind of experiment: CD28 binding affinity; Octet per paragraph 712, scFv in 1+1 Fab-scFv-Fc PDL1×CD28 bsAb. In general terms: Biolayer interferometry detects binding as a change in optical thickness at a sensor tip.
As to B7, binding was characterised by a dissociation constant (Kd) of 37 nM.

For the molecule B8, the affinity, expressed as Kd, was 96 nM. The same measure, in the same setting: the figure for B9 is 240 nM; for B10 it is 180 nM; for B11 it is 36 nM. Same read-out and setting: the figure for B12 is 286 nM.
